Broadly, the Kd is a measure of binding affinity in units of concentration. As a reminder, the IC50 is the concentration that inhibits the measured activity by half. Lower therefore signals inhibition by little substance.

Kd and IC50 data for 2 molecules are collected here from publication PMC3589475, “Large-Scale Functional Purification of Recombinant HIV-1 Capsid” (PLoS ONE, 2013).

For test [1], the target named is T1, wild-type HIV-1 capsid protein (WT CA) (HIV-1 (pLAI.2), UniProt P03348 133-363, biotin (EZ-link Sulfo-NHS-LC-LC-biotin, 1 biotin per molecule) in the SPR only).
T1 construct: HIV-1 capsid protein (CA), the 231 residues of wild-type CA amplified from the infectious HIV-1 cDNA plasmid pLAI.2; The 5' primer added a codon for an N-terminal methionine; untagged (pET30a NdeI/XhoI, stop codon); also called CA FL; full-length wild-type capsid protein; source: E. coli BL21(DE3), purified (ammonium sulfate cut, two rounds of polymerization/depolymerization, Q-HP flow-through); …
The experiment in a line: SPR; Biacore T100; minimally biotinylated WT CA or CA 4Mu hexamer captured on neutravidin on CM5 chips, CAI injected (100 µM and 3-fold dilutions); 50 mM sodium phosphate pH 7.5, 150 mM NaCl, 0.01% P20; steady-state one-site fit. The following applies: both partners purified.

The target in test [2] is T1, wild-type HIV-1 capsid protein (WT CA). The experiment in a line: turbidity (absorbance at 350 nm) polymerization assay with inhibitor; 40 µM WT CA pre-incubated with inhibitor (2-fold serial dilution from 20 µM final for CAI-4), 50 mM sodium phosphate pH 7.5, 2 M NaCl, 0.005% Antifoam 204, 1% DMSO, 25°C; IC50 from initial rates. The following applies: both partners purified.

B1: CAI peptide (peptide)
peptide: ITFEDLLDYYGP
notes: source: synthetic peptide, bought: AnaSpec Inc
Molecule B1 registered a Kd in test [1] of 1.38 µM.

B2: CAI-4 peptide (peptide)
peptide: ITFEDLLDYYK
notes: variant of CAI peptide with a lysine residue replacing the last two C-terminal amino acids; source: synthetic peptide, bought: AnaSpec Inc
With B2, in test [2], the IC50 came to 4.7 ± 0.9 µM.
